# Results published in paper PMC3417369.
# Substrate: C[C@H](O)C(=O)O
# Test: cells, lysate or membranes named
# Type: biochemical, Staphylococcus aureus
# Conditions: 1.4 mM menaquinone, 5 μM FAD, phosphatidylethanolamine vesicles, NBT
protein,measurement,value
"Lqo (Mqo2, SACOL2623) (Staphylococcus aureus subsp. aureus COL) (protein) MAKSNSKDIVLIGAGVLSTTFGSMLKEIEPDWNIHVYERLDRPAIESSNERNNAGTGHAALCELNYTVLQPDGSIDIEKAKVINEEFEISKQFWGHLVKSGSIENPREFINPLPHISYVRGKNNVKFLKDRYEAMKAFPMFDNIEYTEDIEVMKKWIPLMMKGREDNPGIMAASKIDEGTDVNFGELTRKMAKSIEAHPNATVQFNHEVVDFEQLSNGQWEVTVKNRLTGEKFKQVTDYVFIGAGGGAIPLLQKTGIPESKHLGGFPISGQFLACTNPQVIEQHDAKVYGKEPPGTPPMTVPHLDTRYIDGQRTLLFGPFANVGPKFLKNGSNLDLFKSVKTYNITTLLAAAVKNLPLIKYSFDQVIMTKEGCMNHLRTFYPEARNEDWQLYTAGKRVQVIKDTPEHGKGFIQFGTEVVNSQDHTVIALLGESPGASTSVSVALEVLERNFPEYKTEWAPKIKKMIPSYGESLIEDEKLMRKIRKQTSKDLELGYYEN",Km,330 µM
